The target of assay [1] is T1, recombinant human CTLA4 extracellular domain (human, UniProt P16410 36-161).
T1 construct: extracellular domain; also called huCTLA-4
T1 sequence (looked up): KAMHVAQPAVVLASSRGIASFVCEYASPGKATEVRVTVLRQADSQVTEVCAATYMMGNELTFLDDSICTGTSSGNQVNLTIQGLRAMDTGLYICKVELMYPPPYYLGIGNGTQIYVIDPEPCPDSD
The experiment in a line: ELISA, wells coated with human CTLA4, assay pH 6.0; lot 6978 in Glu buffer, T2W; unit from the axis Log[ng/mL]. Here is the method:
(§1) Both ELISA and FACS analysis were used to measure the binding activity. […] The amount of bound antibodies was quantified using anti-human IgG antibody conjugated to HRP. The absorbance at 450 nm in each measurement was proportional to the amount of antibodies bound. […] EC50 value (in ng/mL) for binding to human CTLA4 was determined by absorbance at 450 nm against antibody concentration with Prism variable slope of four-parameter dose-response curve, which was calculated using the nonlinear fit (variable slope, four parameters) model built into GraphPad Prism software (version 7.03). The buffers tested included His buffer (His), Tris buffer (Tris), Glutamine buffer (Glu) and no buffer.
(An ELISA detects its analyte on a solid surface through an enzyme-linked reagent.)

For assay [2], the target named is T2, human CTLA4 expressed on the cell surface of CHO cells (human, UniProt P16410 36-223).
T2 construct: whole, on cells; also called CHO-huCTLA4; huCTLA4
T2 sequence (looked up): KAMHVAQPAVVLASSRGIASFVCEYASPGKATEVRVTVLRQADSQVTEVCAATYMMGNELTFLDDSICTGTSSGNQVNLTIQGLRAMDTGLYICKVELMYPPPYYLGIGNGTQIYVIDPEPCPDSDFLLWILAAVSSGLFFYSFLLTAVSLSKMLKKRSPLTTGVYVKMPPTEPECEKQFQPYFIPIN
Kind of assay: FACS, cells expressing human CTLA4, assay pH 6.0, MFI; lot 6978 in His buffer, T0; unit from the axis Log[ng/mL]. The method, then: (§2) The amount of bound antibodies was quantified using anti-human IgG antibody conjugated to fluorophores. The MFI in each reaction was proportional to the amount of antibodies bound. The EC₅₀ value (in ng/mL) for binding to human CTLA4 on cells was determined by MFI of the singlets population against antibody concentration with a Prism variable slope of four-parameter dose-response curve, which was calculated using the nonlinear fit (variable slope, four parameters) model built into GraphPad Prism software (version 7.03).
A general note: A flow cytometer gives signals particle by particle.

The target of assay [3] is T2, human CTLA4 expressed on the cell …. The experiment in a line: FACS, cells expressing human CTLA4, assay pH 6.0, MFI; lot 6978 in Glu buffer, T0; unit from the axis Log[ng/mL]. The method, then:
as §2

The target is the same in assay [4]. The experiment in a line: FACS, cells expressing human CTLA4, assay pH 6.0, MFI; lot 6978 in His buffer, T2W; unit from the axis Log[ng/mL]. Here is the method: as §2
Assay [5] shares this target. Kind of assay: FACS, cells expressing human CTLA4, assay pH 7.4, MFI; lot 6978 control without test buffer; same column repeated in FIG. 10E and FIG. 10F; unit from the axis Log[ng/mL]. Here is the method:
as §2

Assay [6] shares this target. Kind of assay: FACS, CHO cells expressing human CTLA4 (CHO-huCTLA-4), pH 7.4, MFI; curve still rising at log 5, no plateau; no unit in the table, unit from the axis Log Antibodies [ng/ml]. The method, then:
The amount of antibodies bound on the cells was quantified using anti-human IgG antibody conjugated to fluorophores. EC₅₀ values at pH 6.0 and 7.4 for binding to cells were calculated using the nonlinear fit (variable slope, four parameters) model built into GraphPad Prism software (version 7.03). The expression levels of human CTLA4 or cynomolgus CTLA4 on the surface of the CHO cells were determined using a BD QuantiBRITE™ PE kit.
At least two independent duplicate FACS experiments were performed for each antibody using each of the cell lines. The binding activities at different concentrations of the antibodies are plotted in these figures.

Assay [7] concerns the target T1, recombinant human CTLA4 extracellular …. Kind of assay: ELISA, wells coated with human CTLA4, assay pH 7.4; lot 6978 in Tris buffer, T0; curve still rising at log 3 (OD450 at most about 0.3), no plateau; unit from the axis Log[ng/mL]. Here is the method: as §1
For assay [8] the target is unchanged. The experiment in a line: ELISA, wells coated with human CTLA4, assay pH 7.4; lot 6972 in Tris buffer, T0; unit from the axis Log[ng/mL]. The method, then:
as §1

For assay [9] the target is unchanged. Kind of assay: ELISA, wells coated with human CTLA4, assay pH 6.0; lot 6972 in Glu buffer, T2W; unit from the axis Log[ng/mL]. Here is the method:
as §1

For assay [10] the target is unchanged. The experiment in a line: ELISA, wells coated with human CTLA4, assay pH 7.4; lot 6972 in Tris buffer, T2W; unit from the axis Log[ng/mL]. The method, then: as §1
Assay [11] concerns the target T2, human CTLA4 expressed on the cell …. The experiment in a line: FACS, cells expressing human CTLA4, assay pH 7.4, MFI; lot 6972 in His buffer, T0; unit from the axis Log[ng/mL]. The method, then: as §2
Assay [12] shares this target. Kind of assay: FACS, cells expressing human CTLA4, assay pH 6.0, MFI; lot 6972 in Tris buffer, T0; unit from the axis Log[ng/mL]. The method, then:
as §2

For assay [13] the target is unchanged. Kind of assay: FACS, cells expressing human CTLA4, assay pH 7.4, MFI; lot 6972 control without test buffer; same column repeated in FIG. 10B and FIG. 10C; unit from the axis Log[ng/mL]. The method, then: as §2

B1: BA-087-08-32 (antibody, V domains shown)
VH: EVQLVQSGAEVKKPGATVKISCKVSGFTFSHYTMHWIRQSPSRGLEWLGFISYDGNYKYYADSVKGRFTISRDNAKNSLYLQMNSLRAEDTAVYYCARTGWLGPFDYWGQGTLVTVSS
VL: EIVMTQSPATLSVSPGERATLSCRASQSVGSSYLAWYQQKPGKAPKLLIYGAFSRATGVPSRFSGSGSGTDFTLTISSLQPEDFATYYCQQDGSSPWTFGQGTKVEIK
notes: Detected with anti-human IgG and a molecular weight of 146 kDa was used in SPR, so it was tested as a whole IgG; also called BA-087-08-032; BA-087-08-32 (# 6978)
With B1, the EC50 (in general, the concentration giving half of the maximal effect) was 0.0123 µg/mL in [1]; 0.159 µg/mL in [2]; approximately 0.15 µg/mL in assay [3]; 0.145 µg/mL in [4]; 0.868 µg/mL in [5]; 41.1 µg/mL in assay [6]. The EC50 in assay [7] stood at 1.14 µg/mL.

B2: BA-087-05-19 (antibody, V domains shown)
VH: EVQLVESGGGLVQPGGSLRLSCAASGFTFSHYTMHWVRQAPGKGLEWVSFISYDGNNKYYADSVKGRFTISRDNSKNTLYLQMNSLRAEDTAVYYCARTGWLGPFDYWGQGTLVTVSS
VL: AIQLTQSPSSLSASVGDRVTITCRASQYVGSSYLAWYLQKPGQSPQLLIYGAFSRATGIPARFSGSGSGTEFTLTISSLQSEDFAVYYCQQDGSSPWTFGQGTKVEIK
notes: Detected with anti-human IgG and a molecular weight of 146 kDa was used in SPR, so it was tested as a whole IgG; also called BA-087-05-019; BA-087-05-19 (# 6972)
Take B2: the EC50 in [8] amounted to 0.0424 µg/mL; in assay [9], 0.00266 µg/mL; in [10], 0.0365 µg/mL; in assay [11] it was 0.433 µg/mL; in [12], 0.291 µg/mL; in assay [13] it was 0.428 µg/mL.
